Source: patent publication US20260049138A1 (Chugai, published 2026)
Positions count from the first letter of the chain named. Numbers in names are those of the source.

B1: CE115HA000 R19T one-arm antibody (antibody, human IgG1, kappa, L234A L235A, N297A, name in Kabat numbering)
heavy: QVQLVESGGGVVQPGRSLTLSCAASGFTFSNAWMHWVRQAPGKGLEWVAQIKAKSNNYATYYAESVKGRFTISRDDSKNSLYLQMNSLKTEDTAVYYCRYVHYGAYYGVDAWGQGTTVTVSSASTKGPSVFPLAPSSKSTSGGTAALGCLVKDYFPEPVTVSWNSGALTSGVHTFPAVLQSSGLYSLSSVVTVPSSSLGTQTYICNVNHKPSNTKVDKKVEPKSCDKTHTCPPCPAPEAAGGPSVFLFPPKPKDTLMISRTPEVTCVVVDVSHEDPEVKFNWYVDGVEVHNAKTKPREEQYASTYRVVSVLTVLHQDWLNGKEYKCKVSNKALPAPIEKTISKAKGQPREPQVYTLPPSRCELTKNQVSLSCAVKGFYPSDIAVEWESNGQPENNYKTTPPVLDSDGSFFLVSKLTVDKSRWQQGNVFSCSVMHEALHNHYTQKSLSLSPDYKDDDDK
chain: EPKSSDKTHTCPPCPAPELLGGPSVFLFPPKPKDTLMISRTPEVTCVVVDVSHEDPEVKFNWYVDGVEVHNAKTKPREEQYNSTYRVVSVLTVLHQDWLNGKEYKCKVSNKALPAPIEKTISKAKGQPREPQVCTLPPSRDELTKNQVSLWCLVKGFYPSDIAVEWESNGQPENNYKTTPPVLDSDGSFFLYSKLTVDKSRWQQGNVFSCSVMHEALHNRYTQKSLSLSP
light: DIVMTQSPLSLPVTPGEPASISCRSSQSLVHSNRNTYLHWYQQKPGQAPRLLIYKVSNRFSGVPDRFSGSGSGTDFTLKISRVEAEDVGVYYCGQGTQVPYTFGQGTKLEIKRTVAAPSVFIFPPSDEQLKSGTASVVCLLNNFYPREAKVQWKVDNALQSGNSQESVTEQDSKDSTYSLSSTLTLSKADYEKHKVYACEVTHQGLSSPVTKSFNRGEC
B2: CE115HA000 V95D one-arm antibody (antibody, human IgG1, kappa, L234A L235A, N297A, name in Kabat numbering)
heavy: B1 heavy with T19R, V101D
chain: B1 chain
light: B1 light
B3: CE115HA000 T28S one-arm antibody (antibody, human IgG1, kappa, L234A L235A, N297A, name in Kabat numbering)
heavy: B1 heavy with T19R, T28S
chain: B1 chain
light: B1 light
B4: CE115HA000 S52cD one-arm antibody (antibody, human IgG1, kappa, L234A L235A, N297A, name in Kabat numbering)
heavy: B1 heavy with T19R, S55D
chain: B1 chain
light: B1 light
B5: CE115HA000 S62E one-arm antibody (antibody, human IgG1, kappa, L234A L235A, N297A, name in Kabat numbering)
heavy: B1 heavy with T19R, S65E
chain: B1 chain
light: B1 light
B6: CE115HA000 S52cY one-arm antibody (antibody, human IgG1, kappa, L234A L235A, N297A, name in Kabat numbering)
heavy: B1 heavy with T19R, S55Y
chain: B1 chain
light: B1 light
B7: CE115HA000 V11L one-arm antibody (antibody, human IgG1, kappa, L234A L235A, N297A, name in Kabat numbering)
heavy: B1 heavy with V11L, T19R
chain: B1 chain
light: B1 light
B8: CE115HA000 S52cV one-arm antibody (antibody, human IgG1, kappa, L234A L235A, N297A, name in Kabat numbering)
heavy: B1 heavy with T19R, S55V
chain: B1 chain
light: B1 light
B9: CE115HA000 T57N one-arm antibody (antibody, human IgG1, kappa, L234A L235A, N297A, name in Kabat numbering)
heavy: B1 heavy with T19R, T60N
chain: B1 chain
light: B1 light
B10: CE115HA000 S52cQ one-arm antibody (antibody, human IgG1, kappa, L234A L235A, N297A, name in Kabat numbering)
heavy: B1 heavy with T19R, S55Q
chain: B1 chain
light: B1 light
B11: CE115HA000 T28D one-arm antibody (antibody, human IgG1, kappa, L234A L235A, N297A, name in Kabat numbering)
heavy: B1 heavy with T19R, T28D
chain: B1 chain
light: B1 light
B12: CE115HA000 S62D one-arm antibody (antibody, human IgG1, kappa, L234A L235A, N297A, name in Kabat numbering)
heavy: B1 heavy with T19R, S65D
chain: B1 chain
light: B1 light
B13: CE115HA000 T57I one-arm antibody (antibody, human IgG1, kappa, L234A L235A, N297A, name in Kabat numbering)
heavy: B1 heavy with T19R, T60I
chain: B1 chain
light: B1 light
B14: CE115HA000 S52cG one-arm antibody (antibody, human IgG1, kappa, L234A L235A, N297A, name in Kabat numbering)
heavy: B1 heavy with T19R, S55G
chain: B1 chain
light: B1 light
B15: CE115HA000 S77T one-arm antibody (antibody, human IgG1, kappa, L234A L235A, N297A, name in Kabat numbering)
heavy: B1 heavy with T19R, S80T
chain: B1 chain
light: B1 light
B16: CE115HA000 T57K one-arm antibody (antibody, human IgG1, kappa, L234A L235A, N297A, name in Kabat numbering)
heavy: B1 heavy with T19R, T60K
chain: B1 chain
light: B1 light
B17: CE115HA000 S52cK one-arm antibody (antibody, human IgG1, kappa, L234A L235A, N297A, name in Kabat numbering)
heavy: B1 heavy with T19R, S55K
chain: B1 chain
light: B1 light
B18: CE115HA000 V95G one-arm antibody (antibody, human IgG1, kappa, L234A L235A, N297A, name in Kabat numbering)
heavy: B1 heavy with T19R, V101G
chain: B1 chain
light: B1 light
B19: CE115HA000 V95K one-arm antibody (antibody, human IgG1, kappa, L234A L235A, N297A, name in Kabat numbering)
heavy: B1 heavy with T19R, V101K
chain: B1 chain
light: B1 light
B20: CE115HA000 S74P one-arm antibody (antibody, human IgG1, kappa, L234A L235A, N297A, name in Kabat numbering)
heavy: B1 heavy with T19R, S77P
chain: B1 chain
light: B1 light
B21: CE115HA000 S30G one-arm antibody (antibody, human IgG1, kappa, L234A L235A, N297A, name in Kabat numbering)
heavy: B1 heavy with T19R, S30G
chain: B1 chain
light: B1 light
B22: CE115HA000 S74A one-arm antibody (antibody, human IgG1, kappa, L234A L235A, N297A, name in Kabat numbering)
heavy: B1 heavy with T19R, S77A
chain: B1 chain
light: B1 light
B23: CE115HA000 V95S one-arm antibody (antibody, human IgG1, kappa, L234A L235A, N297A, name in Kabat numbering)
heavy: B1 heavy with T19R, V101S
chain: B1 chain
light: B1 light
B24: CE115HA000 V95A one-arm antibody (antibody, human IgG1, kappa, L234A L235A, N297A, name in Kabat numbering)
heavy: B1 heavy with T19R, V101A
chain: B1 chain
light: B1 light
B25: CE115HA000 S62K one-arm antibody (antibody, human IgG1, kappa, L234A L235A, N297A, name in Kabat numbering)
heavy: B1 heavy with T19R, S65K
chain: B1 chain
light: B1 light
B26: CE115HA000 S52cA one-arm antibody (antibody, human IgG1, kappa, L234A L235A, N297A, name in Kabat numbering)
heavy: B1 heavy with T19R, S55A
chain: B1 chain
light: B1 light
B27: CE115HA000 S52cF one-arm antibody (antibody, human IgG1, kappa, L234A L235A, N297A, name in Kabat numbering)
heavy: B1 heavy with T19R, S55F
chain: B1 chain
light: B1 light
B28: CE115HA000 T57A one-arm antibody (antibody, human IgG1, kappa, L234A L235A, N297A, name in Kabat numbering)
heavy: B1 heavy with T19R, T60A
chain: B1 chain
light: B1 light
B29: CE115HA000 S62P one-arm antibody (antibody, human IgG1, kappa, L234A L235A, N297A, name in Kabat numbering)
heavy: B1 heavy with T19R, S65P
chain: B1 chain
light: B1 light
B30: CE115HA000 V95E one-arm antibody (antibody, human IgG1, kappa, L234A L235A, N297A, name in Kabat numbering)
heavy: B1 heavy with T19R, V101E
chain: B1 chain
light: B1 light
B31: CE115HA000 S52cL one-arm antibody (antibody, human IgG1, kappa, L234A L235A, N297A, name in Kabat numbering)
heavy: B1 heavy with T19R, S55L
chain: B1 chain
light: B1 light
B32: CE115HA000 S30D one-arm antibody (antibody, human IgG1, kappa, L234A L235A, N297A, name in Kabat numbering)
heavy: B1 heavy with T19R, S30D
chain: B1 chain
light: B1 light

Target: T1, CD3ε homodimer protein (human, UniProt P07766 23-126, limits assumed, sulfo-tag or biotin label in the ECL assays; amine-coupled to the chip in SPR)
T1 construct: also called human CD3ε homodimer protein; CD3 (CD3ε)
T1 sequence (P07766 23-126 limits assumed): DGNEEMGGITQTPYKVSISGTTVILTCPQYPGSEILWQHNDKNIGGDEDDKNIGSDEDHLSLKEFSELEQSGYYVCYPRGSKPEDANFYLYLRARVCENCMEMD
Test: SPR Biacore T200; CD3ε homodimer on CM4 chip;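 further: Single-residue variant antibodies injected as analyte over CD3ε homodimer immobilized by amine coupling, run at 25 °C in HBS-EP+ buffer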

Row | ratio of amounts bound Z=Y/X (altered form / CE115HA000) | Binder
1 | 0.8 | B1
2 | 0.24 | B2
3 | 0.91 | B3
4 | 0.6 | B4
5 | 0.92 | B5
6 | 1.11 | B6
7 | 1 | B7
8 | 0.93 | B8
9 | 0.97 | B9
10 | 1.04 | B10
11 | 0.56 | B11
12 | 0.92 | B12
13 | 0.61 | B13
14 | 0.97 | B14
15 | 0.9 | B15
16 | 1.32 | B16

Row | ratio of amounts bound Z=Y/X (altered form / CE115HA000) | Binder
17 | 1.19 | B17
18 | 0.19 | B18
19 | 0.64 | B19
20 | 0.91 | B20
21 | 1.01 | B21
22 | 1.05 | B22
23 | 0.22 | B23
24 | 0.11 | B24
25 | 1.19 | B25
26 | 0.96 | B26
27 | 1.13 | B27
28 | 0.98 | B28
29 | 1 | B29
30 | 0.24 | B30
31 | 0.98 | B31
32 | 0.86 | B32
